One data set has as its target T1, ParA WT (Caulobacter crescentus, UniProt B8GW31 1-267).
T1 sequence: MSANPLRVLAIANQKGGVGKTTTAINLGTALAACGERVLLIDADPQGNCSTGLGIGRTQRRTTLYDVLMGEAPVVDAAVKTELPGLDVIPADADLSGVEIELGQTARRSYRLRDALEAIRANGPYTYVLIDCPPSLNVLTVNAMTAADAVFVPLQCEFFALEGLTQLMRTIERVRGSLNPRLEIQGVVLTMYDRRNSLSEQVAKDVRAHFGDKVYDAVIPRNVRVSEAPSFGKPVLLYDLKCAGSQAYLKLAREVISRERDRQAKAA
As to the kind of experiment: HDX-MS; 1 mM ATPgS; regions R1, R2, R4 protected; EMSA: 10 mM HEPES/NaOH pH 7.2, 150 mM NaCl, 10 mM MgCl2, 0.05% Tween 20, 0.46 mM ATPgS, room temp; BLI: 50 mM HEPES/NaOH pH 7.2, 50 mM NaCl, 5 mM MgCl2, 0.1 mM. The conditions noted are these: protein: recombinant; tags: C-terminal His6; chain copies: 2; blunt. In general terms: In EMSA bound probe runs differently from free probe, usually more slowly.

In a further data set the target is T2, MipZ D42A (Caulobacter crescentus, UniProt Q9A6C9 1-278, D42A).
T2 sequence: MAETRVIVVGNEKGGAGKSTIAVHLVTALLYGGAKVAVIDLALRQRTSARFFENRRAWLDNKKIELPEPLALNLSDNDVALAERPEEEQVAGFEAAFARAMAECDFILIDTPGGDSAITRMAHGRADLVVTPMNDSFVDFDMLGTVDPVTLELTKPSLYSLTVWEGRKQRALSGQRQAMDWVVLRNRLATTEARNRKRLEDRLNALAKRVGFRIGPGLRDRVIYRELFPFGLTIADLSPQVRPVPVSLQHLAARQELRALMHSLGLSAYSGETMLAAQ
As to the kind of experiment: HDX-MS; 1 mM ATPgS; regions R1, R3, R4 protected; EMSA: 10 mM HEPES/NaOH pH 7.2, 150 mM NaCl, 10 mM MgCl2, 0.05% Tween 20, 0.46 mM ATPgS, room temp; BLI: 50 mM HEPES/NaOH pH 7.2, 50 mM NaCl, 5 mM MgCl2, 0.1 mM. The following applies: protein: recombinant; tags: C-terminal His6 (pET21a); chain copies: 2; blunt.

Experimental findings from PMC7229837, “Molecular architecture of the DNA-binding sites of the P-loop ATPases MipZ and ParA from Caulobacter crescentus” are described below.

B1: ran14-up/ran14-lo 14 bp (dsDNA)
DNA 1: GCCGCCGCCGCCGC
DNA 2: GCGGCGGCGGCGGC
B1: the binding result with ParA WT and with MipZ D42A was “binds” throughout.
